Measurements as given in paper PMC3627822.
pIC50, pKd: −log10 of the molar value.

Experiments:
[1] = biological target: sochicetin-A (Echis sochureki); experiment: ELISA
[2] = biological target: sochicetin-B (Echis sochureki); experiment: ELISA
[3] = biological target: sochicetin-C (Echis sochureki); experiment: ELISA
[4] = biological target: soluble integrin α2β1 ectodomain (UniProt P17301); experiment: ELISA
[5] = biological target: sochicetin-A αβ heterodimer (Echis sochureki); experiment: SDS-PAGE, non-reduced against reduced and partly reduced + MALDI-TOF

Work on “recombinant GST-tagged integrin α2 A-domain (domain or fragment)” yielded a pKd [1] of 7.93, a pKd [2] of 7.76 and a pKd [3] of 7.26.
In the case of sochicetin-C (complex), the pIC50 [4] was 5.83.
With sochicetin-A (complex) the pIC50 [4] was 7.22.
Work on sochicetin-A αβ heterodimer (complex) yielded a stoichiometry N [5] of 3.
For sochicetin-B (complex), the pIC50 [4] was 7.49.
